One substance from patent US20060024722A1 can be followed below.

The test concerns the target oncofetal fibronectin (human) (UniProt P02751). As to the kind of experiment: lateral flow sandwich assay (FDC-6 latex conjugate / immobilised goat anti-fibronectin), TLiIQ reflectance reader.
Chain of UniProt P02751 (P02751 32-2477): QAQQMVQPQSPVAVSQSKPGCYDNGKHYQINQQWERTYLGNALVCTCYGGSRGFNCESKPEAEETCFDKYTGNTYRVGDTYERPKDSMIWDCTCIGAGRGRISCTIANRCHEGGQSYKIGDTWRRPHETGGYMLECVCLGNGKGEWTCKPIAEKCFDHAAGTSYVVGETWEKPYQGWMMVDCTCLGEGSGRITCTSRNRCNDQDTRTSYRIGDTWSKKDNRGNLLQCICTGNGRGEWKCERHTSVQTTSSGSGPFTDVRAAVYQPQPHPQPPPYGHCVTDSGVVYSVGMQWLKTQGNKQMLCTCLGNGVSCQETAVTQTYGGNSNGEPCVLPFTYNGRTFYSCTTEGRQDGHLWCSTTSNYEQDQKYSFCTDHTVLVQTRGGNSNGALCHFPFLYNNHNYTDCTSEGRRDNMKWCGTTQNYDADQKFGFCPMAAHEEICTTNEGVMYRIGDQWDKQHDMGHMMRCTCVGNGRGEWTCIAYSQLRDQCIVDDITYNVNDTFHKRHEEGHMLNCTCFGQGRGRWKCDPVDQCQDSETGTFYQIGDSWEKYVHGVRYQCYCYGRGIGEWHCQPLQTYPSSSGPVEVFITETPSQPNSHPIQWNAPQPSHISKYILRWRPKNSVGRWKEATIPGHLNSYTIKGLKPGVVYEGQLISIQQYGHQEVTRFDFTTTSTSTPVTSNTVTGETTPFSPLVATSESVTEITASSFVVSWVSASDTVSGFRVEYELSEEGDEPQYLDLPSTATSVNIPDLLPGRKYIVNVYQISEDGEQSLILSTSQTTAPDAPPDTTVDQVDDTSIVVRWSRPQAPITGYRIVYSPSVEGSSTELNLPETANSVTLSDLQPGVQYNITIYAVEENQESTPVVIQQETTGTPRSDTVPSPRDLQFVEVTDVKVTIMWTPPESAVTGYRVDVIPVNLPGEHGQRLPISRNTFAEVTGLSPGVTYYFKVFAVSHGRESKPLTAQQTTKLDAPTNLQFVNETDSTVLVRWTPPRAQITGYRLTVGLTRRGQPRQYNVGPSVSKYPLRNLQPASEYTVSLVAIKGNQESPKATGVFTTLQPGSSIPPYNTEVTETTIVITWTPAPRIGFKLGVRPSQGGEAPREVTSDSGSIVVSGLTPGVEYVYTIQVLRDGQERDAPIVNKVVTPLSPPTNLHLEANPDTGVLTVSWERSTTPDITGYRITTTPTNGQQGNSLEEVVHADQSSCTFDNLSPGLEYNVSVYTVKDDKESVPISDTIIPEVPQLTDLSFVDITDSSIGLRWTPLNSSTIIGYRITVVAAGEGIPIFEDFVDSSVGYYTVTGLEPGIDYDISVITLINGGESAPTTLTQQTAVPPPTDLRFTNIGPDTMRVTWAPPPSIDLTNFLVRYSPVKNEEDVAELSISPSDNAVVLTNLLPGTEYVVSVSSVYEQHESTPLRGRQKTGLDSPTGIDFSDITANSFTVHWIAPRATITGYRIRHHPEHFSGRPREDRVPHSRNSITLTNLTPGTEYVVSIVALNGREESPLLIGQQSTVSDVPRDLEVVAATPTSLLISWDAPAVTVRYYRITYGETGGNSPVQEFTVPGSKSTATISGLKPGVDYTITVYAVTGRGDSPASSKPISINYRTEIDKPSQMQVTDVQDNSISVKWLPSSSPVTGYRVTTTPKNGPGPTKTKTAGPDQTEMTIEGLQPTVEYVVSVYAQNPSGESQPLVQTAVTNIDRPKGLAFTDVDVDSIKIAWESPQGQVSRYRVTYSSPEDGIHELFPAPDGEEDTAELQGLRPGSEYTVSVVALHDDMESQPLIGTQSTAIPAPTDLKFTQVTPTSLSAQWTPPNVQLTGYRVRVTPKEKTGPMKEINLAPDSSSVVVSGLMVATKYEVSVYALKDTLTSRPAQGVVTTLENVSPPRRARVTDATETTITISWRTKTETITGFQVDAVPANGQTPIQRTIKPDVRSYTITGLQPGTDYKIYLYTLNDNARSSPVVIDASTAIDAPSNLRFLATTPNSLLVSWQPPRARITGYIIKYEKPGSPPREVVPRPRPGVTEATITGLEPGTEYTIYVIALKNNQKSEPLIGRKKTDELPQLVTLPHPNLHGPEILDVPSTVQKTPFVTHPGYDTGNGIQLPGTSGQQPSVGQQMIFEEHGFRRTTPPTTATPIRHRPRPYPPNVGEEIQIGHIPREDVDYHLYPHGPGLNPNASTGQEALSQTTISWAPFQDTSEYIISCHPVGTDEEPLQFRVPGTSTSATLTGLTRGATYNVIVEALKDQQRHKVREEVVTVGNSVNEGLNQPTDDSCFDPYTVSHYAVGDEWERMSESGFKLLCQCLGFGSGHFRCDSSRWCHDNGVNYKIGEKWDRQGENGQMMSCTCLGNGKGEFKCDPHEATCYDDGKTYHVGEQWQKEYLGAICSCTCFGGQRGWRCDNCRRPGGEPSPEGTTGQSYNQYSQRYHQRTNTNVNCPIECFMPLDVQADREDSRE

In turn, “monoclonal antibody FDC-6 produced by hybridoma ATCC HB 9018” yielded a reflectance signal at 50 ng/ml oncofetal fibronectin (reflectance signal) of 0.315.
